Among the data in patent US20240018502A1 are EC50 of hC3 cleavage values, retold here.

The labels stand for the following.
B1: MTSP-1 I41S/D96K/F97G/ins97aV/T98P/F99L/C122S/Q175L/Q192D (enzyme)
chain: VVGGTDADEGEWPWQVSLHALGQGHSCGASLISPNWLVSAAHCYIDDRGFRYSDPTQWTAFLGLHDQSQRSAPGVQERRLKRIISHPFFNKGVPLDYDIALLELEKPAEYSSMVRPISLPDASHVFPAGKAIWVTGWGHTQYGGTGALILQKGEIRVINQTTCENLLPQLITPRMMCVGFLSGGVDSCDGDSGGPLSSVEADGRIFQAGVVSWGDGCAQRNKPGVYTRLPLFRDWIKENTGV
B2: MTSP-1 D96_F97delinsWYY/T98P/F99L/C122S (enzyme)
chain: VVGGTDADEGEWPWQVSLHALGQGHICGASLISPNWLVSAAHCYIDDRGFRYSDPTQWTAFLGLHDQSQRSAPGVQERRLKRIISHPFFNWYYPLDYDIALLELEKPAEYSSMVRPISLPDASHVFPAGKAIWVTGWGHTQYGGTGALILQKGEIRVINQTTCENLLPQQITPRMMCVGFLSGGVDSCQGDSGGPLSSVEADGRIFQAGVVSWGDGCAQRNKPGVYTRLPLFRDWIKENTGV
B3: MTSP-1 F97T/ins97aE/T98G/F99L/C122S/Q175L/Q192E (enzyme)
chain: VVGGTDADEGEWPWQVSLHALGQGHICGASLISPNWLVSAAHCYIDDRGFRYSDPTQWTAFLGLHDQSQRSAPGVQERRLKRIISHPFFNDTEGLDYDIALLELEKPAEYSSMVRPISLPDASHVFPAGKAIWVTGWGHTQYGGTGALILQKGEIRVINQTTCENLLPQLITPRMMCVGFLSGGVDSCEGDSGGPLSSVEADGRIFQAGVVSWGDGCAQRNKPGVYTRLPLFRDWIKENTGV
B4: MTSP-1 Q38H/I41S/D96K/F97G/ins97aV/T98P/F99L/C122S/Q175L/Q192D (enzyme)
chain: VVGGTDADEGEWPWQVSLHALGHGHSCGASLISPNWLVSAAHCYIDDRGFRYSDPTQWTAFLGLHDQSQRSAPGVQERRLKRIISHPFFNKGVPLDYDIALLELEKPAEYSSMVRPISLPDASHVFPAGKAIWVTGWGHTQYGGTGALILQKGEIRVINQTTCENLLPQLITPRMMCVGFLSGGVDSCDGDSGGPLSSVEADGRIFQAGVVSWGDGCAQRNKPGVYTRLPLFRDWIKENTGV
B5: MTSP-1 I41T/F97W/F99L/C122S/G151N/Q175M/Q192G/D217L (enzyme)
chain: VVGGTDADEGEWPWQVSLHALGQGHTCGASLISPNWLVSAAHCYIDDRGFRYSDPTQWTAFLGLHDQSQRSAPGVQERRLKRIISHPFFNDWTLDYDIALLELEKPAEYSSMVRPISLPDASHVFPAGKAIWVTGWGHTQYGGTNALILQKGEIRVINQTTCENLLPQMITPRMMCVGFLSGGVDSCGGDSGGPLSSVEADGRIFQAGVVSWGLGCAQRNKPGVYTRLPLFRDWIKENTGV
B6: MTSP-1 H40R/I41H/F97D/F99L/Q192G (enzyme)
chain: VVGGTDADEGEWPWQVSLHALGQGRHCGASLISPNWLVSAAHCYIDDRGFRYSDPTQWTAFLGLHDQSQRSAPGVQERRLKRIISHPFFNDDTLDYDIALLELEKPAEYSSMVRPICLPDASHVFPAGKAIWVTGWGHTQYGGTGALILQKGEIRVINQTTCENLLPQQITPRMMCVGFLSGGVDSCGGDSGGPLSSVEADGRIFQAGVVSWGDGCAQRNKPGVYTRLPLFRDWIKENTGV
B7: MTSP-1 H40R/I41H/F97E/C122S (enzyme)
chain: VVGGTDADEGEWPWQVSLHALGQGRHCGASLISPNWLVSAAHCYIDDRGFRYSDPTQWTAFLGLHDQSQRSAPGVQERRLKRIISHPFFNDETFDYDIALLELEKPAEYSSMVRPISLPDASHVFPAGKAIWVTGWGHTQYGGTGALILQKGEIRVINQTTCENLLPQQITPRMMCVGFLSGGVDSCQGDSGGPLSSVEADGRIFQAGVVSWGDGCAQRNKPGVYTRLPLFRDWIKENTGV
B8: MTSP-1 C122S/G193E (enzyme)
chain: VVGGTDADEGEWPWQVSLHALGQGHICGASLISPNWLVSAAHCYIDDRGFRYSDPTQWTAFLGLHDQSQRSAPGVQERRLKRIISHPFFNDFTFDYDIALLELEKPAEYSSMVRPISLPDASHVFPAGKAIWVTGWGHTQYGGTGALILQKGEIRVINQTTCENLLPQQITPRMMCVGFLSGGVDSCQEDSGGPLSSVEADGRIFQAGVVSWGDGCAQRNKPGVYTRLPLFRDWIKENTGV
B9: MTSP-1 C122S/G151N/G193A (enzyme)
chain: VVGGTDADEGEWPWQVSLHALGQGHICGASLISPNWLVSAAHCYIDDRGFRYSDPTQWTAFLGLHDQSQRSAPGVQERRLKRIISHPFFNDFTFDYDIALLELEKPAEYSSMVRPISLPDASHVFPAGKAIWVTGWGHTQYGGTNALILQKGEIRVINQTTCENLLPQQITPRMMCVGFLSGGVDSCQADSGGPLSSVEADGRIFQAGVVSWGDGCAQRNKPGVYTRLPLFRDWIKENTGV
B10: MTSP-1 H40R/I41H/F97D/F99L/C122S/Q192G (enzyme)
chain: VVGGTDADEGEWPWQVSLHALGQGRHCGASLISPNWLVSAAHCYIDDRGFRYSDPTQWTAFLGLHDQSQRSAPGVQERRLKRIISHPFFNDDTLDYDIALLELEKPAEYSSMVRPISLPDASHVFPAGKAIWVTGWGHTQYGGTGALILQKGEIRVINQTTCENLLPQQITPRMMCVGFLSGGVDSCGGDSGGPLSSVEADGRIFQAGVVSWGDGCAQRNKPGVYTRLPLFRDWIKENTGV
B11: MTSP-1 C122S/G193A (enzyme)
chain: VVGGTDADEGEWPWQVSLHALGQGHICGASLISPNWLVSAAHCYIDDRGFRYSDPTQWTAFLGLHDQSQRSAPGVQERRLKRIISHPFFNDFTFDYDIALLELEKPAEYSSMVRPISLPDASHVFPAGKAIWVTGWGHTQYGGTGALILQKGEIRVINQTTCENLLPQQITPRMMCVGFLSGGVDSCQADSGGPLSSVEADGRIFQAGVVSWGDGCAQRNKPGVYTRLPLFRDWIKENTGV
B12: MTSP-1 F97E/F99L/C122S/D217I/K224N (enzyme)
chain: VVGGTDADEGEWPWQVSLHALGQGHICGASLISPNWLVSAAHCYIDDRGFRYSDPTQWTAFLGLHDQSQRSAPGVQERRLKRIISHPFFNDETLDYDIALLELEKPAEYSSMVRPISLPDASHVFPAGKAIWVTGWGHTQYGGTGALILQKGEIRVINQTTCENLLPQQITPRMMCVGFLSGGVDSCQGDSGGPLSSVEADGRIFQAGVVSWGIGCAQRNNPGVYTRLPLFRDWIKENTGV
B13: MTSP-1 I41G/F97I/F99L/C122S/G151L/Q175M/Q192S/D217V (enzyme)
chain: VVGGTDADEGEWPWQVSLHALGQGHGCGASLISPNWLVSAAHCYIDDRGFRYSDPTQWTAFLGLHDQSQRSAPGVQERRLKRIISHPFFNDITLDYDIALLELEKPAEYSSMVRPISLPDASHVFPAGKAIWVTGWGHTQYGGTLALILQKGEIRVINQTTCENLLPQMITPRMMCVGFLSGGVDSCSGDSGGPLSSVEADGRIFQAGVVSWGVGCAQRNKPGVYTRLPLFRDWIKENTGV
B14: MTSP-1 H40R/I41H/F97D/C122S/G151N (enzyme)
chain: VVGGTDADEGEWPWQVSLHALGQGRHCGASLISPNWLVSAAHCYIDDRGFRYSDPTQWTAFLGLHDQSQRSAPGVQERRLKRIISHPFFNDDTFDYDIALLELEKPAEYSSMVRPISLPDASHVFPAGKAIWVTGWGHTQYGGTNALILQKGEIRVINQTTCENLLPQQITPRMMCVGFLSGGVDSCQGDSGGPLSSVEADGRIFQAGVVSWGDGCAQRNKPGVYTRLPLFRDWIKENTGV
B15: MTSP-1 I41G/F97L/F99L/C122S/Q175A/Q192T/D217V (enzyme)
chain: VVGGTDADEGEWPWQVSLHALGQGHGCGASLISPNWLVSAAHCYIDDRGFRYSDPTQWTAFLGLHDQSQRSAPGVQERRLKRIISHPFFNDLTLDYDIALLELEKPAEYSSMVRPISLPDASHVFPAGKAIWVTGWGHTQYGGTGALILQKGEIRVINQTTCENLLPQAITPRMMCVGFLSGGVDSCTGDSGGPLSSVEADGRIFQAGVVSWGVGCAQRNKPGVYTRLPLFRDWIKENTGV
B16: MTSP-1 I41G/F97V/F99L/C122S/G151Q/Q175M/Q192A/D217L (enzyme)
chain: VVGGTDADEGEWPWQVSLHALGQGHGCGASLISPNWLVSAAHCYIDDRGFRYSDPTQWTAFLGLHDQSQRSAPGVQERRLKRIISHPFFNDVTLDYDIALLELEKPAEYSSMVRPISLPDASHVFPAGKAIWVTGWGHTQYGGTQALILQKGEIRVINQTTCENLLPQMITPRMMCVGFLSGGVDSCAGDSGGPLSSVEADGRIFQAGVVSWGLGCAQRNKPGVYTRLPLFRDWIKENTGV
B17: MTSP-1 H40R/I41H/Y60gH/F97D/F99L/C122S/G151N/Q175A/Q192H/D217I/K224R (enzyme)
chain: VVGGTDADEGEWPWQVSLHALGQGRHCGASLISPNWLVSAAHCYIDDRGFRHSDPTQWTAFLGLHDQSQRSAPGVQERRLKRIISHPFFNDDTLDYDIALLELEKPAEYSSMVRPISLPDASHVFPAGKAIWVTGWGHTQYGGTNALILQKGEIRVINQTTCENLLPQAITPRMMCVGFLSGGVDSCHGDSGGPLSSVEADGRIFQAGVVSWGIGCAQRNRPGVYTRLPLFRDWIKENTGV
B18: MTSP-1 H40R/I41H/C122S/G151N (enzyme)
chain: VVGGTDADEGEWPWQVSLHALGQGRHCGASLISPNWLVSAAHCYIDDRGFRYSDPTQWTAFLGLHDQSQRSAPGVQERRLKRIISHPFFNDFTFDYDIALLELEKPAEYSSMVRPISLPDASHVFPAGKAIWVTGWGHTQYGGTNALILQKGEIRVINQTTCENLLPQQITPRMMCVGFLSGGVDSCQGDSGGPLSSVEADGRIFQAGVVSWGDGCAQRNKPGVYTRLPLFRDWIKENTGV
B19: MTSP-1 I41G/F97S/F99L/C122S/G151N/Q175L/Q192G/D217I (enzyme)
chain: VVGGTDADEGEWPWQVSLHALGQGHGCGASLISPNWLVSAAHCYIDDRGFRYSDPTQWTAFLGLHDQSQRSAPGVQERRLKRIISHPFFNDSTLDYDIALLELEKPAEYSSMVRPISLPDASHVFPAGKAIWVTGWGHTQYGGTNALILQKGEIRVINQTTCENLLPQLITPRMMCVGFLSGGVDSCGGDSGGPLSSVEADGRIFQAGVVSWGIGCAQRNKPGVYTRLPLFRDWIKENTGV
B20: MTSP-1 F97D/F99L/C122S/Q192G (enzyme)
chain: VVGGTDADEGEWPWQVSLHALGQGHICGASLISPNWLVSAAHCYIDDRGFRYSDPTQWTAFLGLHDQSQRSAPGVQERRLKRIISHPFFNDDTLDYDIALLELEKPAEYSSMVRPISLPDASHVFPAGKAIWVTGWGHTQYGGTGALILQKGEIRVINQTTCENLLPQQITPRMMCVGFLSGGVDSCGGDSGGPLSSVEADGRIFQAGVVSWGDGCAQRNKPGVYTRLPLFRDWIKENTGV

The target in this experiment is plasma purified human complement protein C3 (human) (UniProt P01024). Kind of experiment: cell-based or functional assay.
plasma purified human complement protein C3 (human), sequence (P01024 23-667, chain 1 of 2): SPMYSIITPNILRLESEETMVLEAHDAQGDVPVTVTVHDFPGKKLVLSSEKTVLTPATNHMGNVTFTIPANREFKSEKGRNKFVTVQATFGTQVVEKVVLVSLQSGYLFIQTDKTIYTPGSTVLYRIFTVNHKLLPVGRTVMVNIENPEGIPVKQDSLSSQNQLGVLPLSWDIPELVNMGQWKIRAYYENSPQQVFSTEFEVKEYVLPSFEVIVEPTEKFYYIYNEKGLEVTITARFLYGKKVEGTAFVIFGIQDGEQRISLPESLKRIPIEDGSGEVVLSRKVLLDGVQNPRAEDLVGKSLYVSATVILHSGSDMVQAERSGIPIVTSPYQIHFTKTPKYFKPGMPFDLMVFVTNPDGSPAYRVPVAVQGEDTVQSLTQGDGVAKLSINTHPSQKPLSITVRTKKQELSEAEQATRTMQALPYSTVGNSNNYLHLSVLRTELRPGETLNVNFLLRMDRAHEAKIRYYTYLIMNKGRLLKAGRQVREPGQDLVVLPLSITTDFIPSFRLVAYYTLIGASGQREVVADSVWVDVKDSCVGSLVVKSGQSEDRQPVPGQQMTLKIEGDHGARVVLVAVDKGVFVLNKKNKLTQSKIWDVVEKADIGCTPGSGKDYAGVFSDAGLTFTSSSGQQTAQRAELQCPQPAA
plasma purified human complement protein C3 (human), sequence (P01024 672-1663, chain 2 of 2): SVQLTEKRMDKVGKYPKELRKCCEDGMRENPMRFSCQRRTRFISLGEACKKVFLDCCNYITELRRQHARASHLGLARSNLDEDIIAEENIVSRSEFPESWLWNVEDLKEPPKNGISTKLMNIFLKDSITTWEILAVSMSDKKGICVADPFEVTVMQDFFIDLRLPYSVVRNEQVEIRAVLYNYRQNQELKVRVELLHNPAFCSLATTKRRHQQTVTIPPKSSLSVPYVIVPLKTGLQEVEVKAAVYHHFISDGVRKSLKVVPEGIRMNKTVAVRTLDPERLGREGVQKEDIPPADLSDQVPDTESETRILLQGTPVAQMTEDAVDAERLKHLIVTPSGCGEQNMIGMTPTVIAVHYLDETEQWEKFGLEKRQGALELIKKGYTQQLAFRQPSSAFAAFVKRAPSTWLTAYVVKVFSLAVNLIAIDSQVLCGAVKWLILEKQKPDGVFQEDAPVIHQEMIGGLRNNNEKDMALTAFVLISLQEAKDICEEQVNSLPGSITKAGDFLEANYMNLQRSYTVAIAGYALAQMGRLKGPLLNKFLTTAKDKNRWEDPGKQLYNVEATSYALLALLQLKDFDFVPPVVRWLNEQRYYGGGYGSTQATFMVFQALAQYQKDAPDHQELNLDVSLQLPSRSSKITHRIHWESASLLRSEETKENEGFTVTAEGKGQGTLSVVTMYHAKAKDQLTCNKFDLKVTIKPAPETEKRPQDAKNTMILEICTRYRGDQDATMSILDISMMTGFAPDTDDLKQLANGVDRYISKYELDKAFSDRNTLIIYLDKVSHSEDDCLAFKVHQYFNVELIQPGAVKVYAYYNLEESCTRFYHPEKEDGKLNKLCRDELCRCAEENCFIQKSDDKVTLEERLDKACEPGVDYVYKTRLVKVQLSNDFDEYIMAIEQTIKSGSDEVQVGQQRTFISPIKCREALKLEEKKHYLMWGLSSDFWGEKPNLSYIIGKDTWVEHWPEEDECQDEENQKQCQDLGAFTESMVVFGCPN
In turn, B1 registered an EC50 of hC3 cleavage of 0.0686 µM.

B2 had an EC50 of hC3 cleavage of 0.0226 µM. Then B3, with 0.259 µM. Then B4, with 0.022 µM.

Take B5: the EC50 of hC3 cleavage is 0.0121 µM.

In the case of B6, the EC50 of hC3 cleavage was determined as 0.0241 µM. Then B7, with 0.0517 µM; and B8, with 0.119 µM.

For B9, the EC50 of hC3 cleavage worked out at 0.0857 µM. With B10 the figure was 0.0354 µM; with B11, 0.0447 µM; with B12, 0.00633 µM.

B13: the EC50 of hC3 cleavage is 0.00284 µM. With B14 the figure was 0.11 µM; with B15, 0.00775 µM.

In turn, B16 had an EC50 of hC3 cleavage of 0.00974 µM.

B17 registered an EC50 of hC3 cleavage of 0.0198 µM. With B18, the EC50 of hC3 cleavage was found to be 0.0596 µM. Then B19, with 0.00684 µM. Then B20, with 0.0781 µM.
